Reference: patent publication US11236163

Experiments:
[1] = molecular target: T1, recombinant human LAG-3 fusion protein (human, UniProt P18627); assay: SPR
T1 chain: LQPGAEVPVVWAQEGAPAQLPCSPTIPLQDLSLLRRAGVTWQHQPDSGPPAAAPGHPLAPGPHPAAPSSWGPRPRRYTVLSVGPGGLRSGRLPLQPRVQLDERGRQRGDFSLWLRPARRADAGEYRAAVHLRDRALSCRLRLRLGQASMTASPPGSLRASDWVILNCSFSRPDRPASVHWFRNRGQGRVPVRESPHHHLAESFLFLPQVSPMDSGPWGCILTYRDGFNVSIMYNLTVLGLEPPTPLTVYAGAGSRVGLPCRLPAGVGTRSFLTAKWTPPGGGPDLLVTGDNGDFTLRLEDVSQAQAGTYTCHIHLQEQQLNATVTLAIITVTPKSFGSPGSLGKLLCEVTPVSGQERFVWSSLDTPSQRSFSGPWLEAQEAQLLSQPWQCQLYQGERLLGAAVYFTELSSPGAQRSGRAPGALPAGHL

[2] = molecular target: T2, human LAG-3 (cell surface) (human, UniProt P18627); assay: FACS, CHO-human LAG-3
T2 chain: T1 chain

Kd [1]: 4.53 nM | EC50 [2]: 12.3 nM
B1: 17E5 (antibody)
chain 1: not shown
chain 2: EIVLTQSPATLSLSPGERATLSCRASQSVSSYLAWYQQKPGQAPRLLIYDASNRATGIPARFSGSGSGTDFTLTISSLEPEDFAVYYCQQRSNWPITFGQGTRLEIK
